From the domain aggregation screens of Martell et al. (2025)

Assay: soluble fraction after stress (log2 fold change); higher = more stays soluble; pooled small domains, quantitative proteomics
Conditions: stress: pH 4
Outline: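 How much of each domain stays soluble after acid stress, expressed as a fold change, is used to gauge aggregation propensity. Pooled custom libraries of small domains underwent pH 4 stress before high-throughput quantitative proteomics. A higher log2 value means more of the domain stayed soluble.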

| Sequence | soluble fraction (log2) |
| --- | --- |
| HMKISIDNPSVLLDKLATLFPDTSKNKLRKMLTEGRIYVNDNIEHRAKRELINGDTVKILDKTTSKE | -0.0228 |
| HMKITAPLPGTITEIKVKVGDTVKNGDTVVVLEAMKMQNNIEAESNGTVTAIFVNKGDTVMEGDALMTI | 0.22 |
| HMKITTKNYFKAIAEVGVENLPAALKKSHDLIEERTSKGADWSVYEHDAEVRRVFDLTFEKLFEFIDQ | -1.23 |
| HMKKAITMGDIITVKELSEKIGIQVAEIIKKLMGLGILATINKELDYDTANVIASEFHIELERK | 0.0872 |
| HMKKASLSTVEKKLMKQNYSNDTMENRLARVESYMFGTVFSSDDTQTRIDRISSAYNAQKSS | -0.197 |
| HMKKDLATYAYEHIKQMVIDRELMPGERIQQEVLARELGISRTPLVTALNRLASENLVELEANKGFSVRRF | 0.429 |
| HMKKEETEAEELEEKFTSAQIKQAYGILNDPRYKQGNYSGAVNVINKIAPGLADHPDVKNALKRANEEL | -0.323 |
| HMKKGRIGSIIQYVREHPGVSSSEIITGLGLDISPATIRRDLTLLVAENKLSVEGQNKGTKYFVSPTYDMF | 0.271 |
| HMKKIDVEVVRSQLIAWMADNGKSQAEVSKSMGISASALSMFIKGTYTGDNEQIGRKAAALMDLVHRQSA | 0.189 |
| HMKKILITGNSGYIGSHLSKMLENDYEVHGLDIRQPQHPVAKFYEQDINRPINIEEEYDAVIHLAALV | -0.104 |
| HMKKILLGDVNLDGKVDVNDVTLLQRYIAGETEVITSKDALTATNFNKDGNIDVLDVTDIQTFIANSE | 0.00934 |
| HMKKLTNKQIIFFAEKLAHHSDFASKYSKVGESYEEFAIRLEKELNTPQKVEFYSSYLEKVGFK | -0.78 |
| HMKKPKTVLSEEQKEFIINQAQDGVSAYDIARILFPSVNVTNLSKEVIDVAEFIRDTDIKLLADSE | -0.132 |
| HMKKPRKTSRKSIENAAIFYLQRFSSSIENLRRVLMRRVYRSAQYHNTKPEEDAKIVDSIIYRLIETGVL | -0.0658 |
| HMKKSRLHSVLEEIPGIGEKRRKILIKHFGTVEAIKKSSLEELARIKGMNRRAAQNVLEYLK | 0.407 |
| HMKKVIKIEENVSLQKLAALMSLKVTDVLMRLLSMGMSGVNINSTIDADTAKILASEFGWTVED | -0.669 |
| HMKKVKVPNVVGMSLKEARDALSAVNIAVNQVAGSVEDKSVVTEQSLKAGDEVDEGSSLNLTTEYK | 0.412 |
| HMKKYLTETEAAAYLNMPVEEIKAAITKGEIEQYVKTSSGYTISVEELDKFFGQKAYDTMTSNNS | -0.43 |
| HMKLASIGDNIHTLRKNKGLTQSQLAGKLGVNVDTISNYEKGVSTPDFDIVEKLVNIFNVDAHSLLFK | -0.351 |
| HMKLEKKWIEAVEKYRRYVLSTGIKHVQKPIEFENFRLGQWYADVRQSYRRGTLSKEKLLEIREINPDFPN | 0.324 |
| HMKLFGTPGSPFARKVRIVLEEKRIPHEYIIERGSAPGSRVPQYNPLGKVPTLVLDDGRGLYDSPVIVEYL | -0.108 |
| HMKLGYTVHGNVVTVKAVANGISLYNTIGQKVAESTDGQTVKAPAHGVYILSVQGKSGSRETAKIVI | 0.114 |
| HMKLHQDLQIKVIDAANNKVEFIDTATGTSLATRTLDVNGVSKARGFEATLYGVVEDNDVFHIA | -0.116 |

| Sequence | soluble fraction (log2) |
| --- | --- |
| HMKLIRIPFILTEGPDSQKITIDVDGDEEFRLGDVFEEDDKLWTVNQILVSGERKAKRSMAGEVMRISALR | -0.696 |
| HMKLNEQSMQVIDRIVDRHRGRPGPVKLMLHDVQKELGYIPFEAMEKIAAASGVSADEVYGVVTFYTQFTT | -1.27 |
| HMKLNETIAEARKRKGLTQEQLAQKLYVTRQAVSRWERGEVVPGIDMLKLIAITLEEPIVHLL | -0.679 |
| HMKLQIQNIEIDKKISELAEGVSAEKLPFLAKLIDRSKLLNDKGEINEDSVKAAIEEVVKAFPDFK | -0.945 |
| HMKLRKINLIGIFGSKTAPSALVRLTNGRVLKVGLGELLDGGRVTAIGRSSLTYNKSGKSITLNMPI | ≥ 0.43 |
| HMKLRYRTQEELLGVAREYRRRGLPLSVIVIDFYHWTKFGDWKFDPAYWPDPVGMVRELRDMGVEAAV | 0.22 |
| HMKLSKKVTDFLAQMPSKSISPKMLANNLGLADDAGDYKHLLKTIAQLEESKAIEVTAAGNIALPQPE | 0.0669 |
| HMKLSLKTQVKEYLLSYIRDKKLQPGDRLLTQRELAEMLHTSQKVAQMALNSLEEEGIIIRRLGSGSFLAR | -0.227 |
| HMKLTKPQEVFIQELLKGSSQYEAYLKAYPSKKTWKRNSIDTEASKLFKNAKIKQRYEELLYNIREE | -0.175 |
| HMKLTNNDFIRLKTFMYNNYGINLENKKTLIETRLAIVVKRLGFNDFKSYIDNLMRDKTGEQASIIVGKLT | -0.141 |
| HMKLTPKQQQIYDFISSFADEHGYPPSVREIAQAVNLKSPATVHFHLKGLREAGYISQAEGKTRAITI | -0.136 |
| HMKMDGESQRLLSLIKEQGGSLPIGDKSSPEAIYRLTQMSKKTFKMALGSLYKAKQVVLSPTEVRL | 0.0519 |
| HMKMNFNEEEQKLLSEANVLVETNKTYTDDEVKGFSNKIVEHIMTFSKTDIPKVKSKFDPILFKI | -0.745 |
| HMKMTIEDLITQAKESNAAENYYEAFQLYSKAIDVLPNDPDLYSARGVVLFHLDRKEDSLIDMNKSVD | -0.879 |
| HMKMVEIDYGKFLTMLDTGKVKSVEIENNRIAINPSSSKDKNIYITGRMDDPELVDRLKNAKVEFTKVIP | -0.0394 |
| HMKNAYDLKMLVKDNDGNIERNMKYYFFLANGSKVEGITDDNGYTKTITTIQPEKADLHLINDELI | -0.0557 |
| HMKNDIQLKHDVEEELQWDPAVDASRFAVQAKDGVVTLSGGVDTFADKHAAEEAIRRVAGVTALVIHVDV | -0.271 |
| HMKNEFRVYPNPANKEIVTFNQTQDIEVYDTLGKLVLKAKNTNTLDTKSFHSGIYFIKTGSGLTRKLVV | ≥ 0.43 |
| HMKNEQESIAQKLYEAALKNDFVTIQEIQSGGYRLRNDDLTHMRESGVQSNTLIAIQKIFGL | -0.578 |
| HMKNEQIFIVRPDAEGTRLDQWLAAQMASSEEAPSRMQIQRWIKAGLVEGQGTLNPARRIEAGESYTVKPG | 0.203 |
| HMKNEYAMVIQVNGKLRGNMLVSADLEQKDIERMALDNEDIKRFISHENDVKKMIFVPKKLINIVT | ≥ 0.43 |
| HMKNIFDWLKQINYHKQPADSFTEKDWELFNSYMVHRFMSMNREFIEVVNYVQEMPPQEKILIYNIYREF | 0.25 |
| HMKNIINFIVKEDDNNKRVDMILANHDKSLSRTRVKNLILDSKLKINERIVQDPSIKTKLNDKIELEIVEP | 0.251 |

| Sequence | soluble fraction (log2) |
| --- | --- |
| HMKNIINLVIDGELHGKRIDAVIAQKNDSLSRTRIKNLVINGNLSINDEIVSDPSKKIYKDDKVSLTIPLP | -0.085 |
| HMKNIMRQWIELEPDQGKIRSKLYSLDRVVEETTNEVGMIKLLLEIDEKELNNLVSHNDIRLV | -0.625 |
| HMKNIRKQAIEAIDRIKNGNPIVISKNAKLIFKNIAKEANVSPTELHREFRDVMLYVNSLKAP | 0.271 |
| HMKNKVTVPKVEGMDKEEAIQALNEVGLGYKAVMQSSDSVAEGKVISQGTAAGKKVDKNTQIIITVSGG | ≥ 0.43 |
| HMKNLADNIVALRKKHGLSQEQFAEKIDVTRQAVSNWERRIATPDVETIDLIAKLFDTDLTALVNG | -0.129 |
| HMKNLKLVSNTDGIRIDSWLADEFEDYSRSYLRKLIDQDLVYVNGNKIKANYKLKKGDEISISIPEPE | -0.259 |
| HMKNLTERQQQIIALISGNPLITRAEIASAIGFSVKTIERELSILSEIVSYVGSKKGGHWEIQT | -0.49 |
| HMKNLTERQQRIIALISENPQTTRAEIAGAIGVATKTIERELTTLSNIVYYVGPKKGGHWEIIK | 0.333 |
| HMKNLTEVEYSEFLESIAQDRVSKVQVDGLIIRGEMNDGQRFETVQPQVTDKALIDDMVNHRVDFSGARP | -0.726 |
| HMKNMSLGERIKEQRKSSGLSQEKVAEFVGVSRQAVTKWETGQSAPSTENLFKLAEIFGTTVDILLA | -0.0228 |
| HMKNNAIAPDQVVSLLKNEVNYNDDGRIEILDNNKNIRYNSKGELLTIEERVNEFLDANPHFRK | -0.0472 |
| HMKNSMANVQARREKILSAVDQSEPVAVEGLAQRFNVSITTLRRDLKALSDMGQVKWHHGLVERT | 0.164 |
| HMKNVADEVFEKMLNMIIEGDWKKGEMIPSENELREAFSVSRSTVRQAVQRLSALGIVRSRQGKGTYVEQV | 0.0309 |
| HMKNYYELLGVAREASQDQIKKAYRKLARKYHPDVSKEADAETRMQELNVAYDTLSDAEKKREYDFQLDHP | 0.218 |
| HMKPDDDMLLKILTKLFIQKQFVINSKDIFQYILKNTNRTYENIINIVNRLDTLSIEKKRQLTIPLIKEI | -0.555 |
| HMKPEQIELTFSGTTAMRLDKFLAENQPGLSRAKLQAIISSGSVEVNGKVITKQAFKLDPGDLVKALIPE | ≥ 0.43 |
| HMKPGWEDIFRMNQIQLEDAVRTVNRDDTLAPTKKAYLIQNLLASRWIVGNQLQAQKDKTTE | -0.335 |
| HMKPGYVIQVNGTVTKIQSGLVYVKTPAAQYTLMRKYAPADAAVGDRVSLWINEEGMVIDVHGK | -0.671 |
| HMKPKDILLPNFTNLTLDEAKAKAEEVKLNLNVSEEKYDVQIEEGKIISQDPKYQPNYTVKEGSTVNVVVS | 0.0508 |
| HMKPLIIPLELMQRLSSDKQLEAGFNRFSKSKQHEFAAYIAAAKRVETKVKRLEKIIPLILSGEGLNDR | 0.333 |
| HMKPLRPVHLEIQTHRLSPVGILRSSFRQAGKVMHSNHGRITGLNLEQLKLIQAAFAGEALPK | 0.0473 |
| HMKPQIRRHEKITALVREHGFMSVEQLARELEVTPQTIRRDIGILSAENVLRRYHGGAALGD | 0.148 |
| HMKPSNLTSDERTQLLAQLKTAMGSDQYNQLRRQVGEEKLLEYVLDNVPGIQEEILGNRAVQENIDLH | -0.266 |
